The target in experiment [1] is uridine-specific nidoviral endoribonuclease (NendoU) protein from SARS-CoV-2 (SARS-CoV-2). Kind of experiment: SEC. (Size exclusion chromatography separates by hydrodynamic size, large species first.)
Experiment [2] shares this target. Kind of experiment: dynamic light scattering.

What is called stoichiometry N is the number of molecules, sites or subunits per partner or assembly. Take “uridine-specific nidoviral endoribonuclease (NendoU) protein from SARS-CoV-2 (enzyme)”: the stoichiometry N in experiment [1] and in experiment [2] was 6 in each case.

The values are drawn from PMC9830665.
